We go through seven molecules from patent US5876691A, “Antibody against carcionembryonic antigen (CEA)” (Cancer Research Campaign Technology Limited, priority 1993, dated 1999).

Data set [1] has as its target carcinoembryonic antigen (CEA) (human) (UniProt P06731). Description: 99mTc-labelled MFE-cys applied to a 1 ml CEA/Sepharose column (1 mg CEA), bound material eluted with 3M ammoniumthiocyanate.
The target is the same in data set [2]. The data set can be described thus: CEA column, after radiolabelling with 125I.
The target is the same in data set [3]. Description: unbound fraction of 125I-MFE-23 His reapplied to the CEA column.
Data set [4] has the same target. Description: 125I-labelled scFv applied to a CEA coupled Sepharose 4B column, gamma counting.
Data set [5] shares this target. Description: known amount of antibody applied to the CEA affinity column after 6 months storage at 4 C.
The target is the same in data set [6]. Description: IMAC purified MFE-23 His, 1 mg applied to the CEA affinity column after 6 months storage at 4 C.
Data set [7] shares this target. The data set can be described thus: IMAC purified MFE-23 His, 2 mg applied to the CEA affinity column after 6 months storage at 4 C.
Data set [8] has the same target. Description: IMAC purified MFE-23 His, 0.5 mg applied to the CEA affinity column after 6 months storage at 4 C.
The target is the same in data set [9]. The data set can be described thus: MFE-23 His purified by CEA antigen affinity chromatography, 1 mg applied to the CEA affinity column.
The target is the same in data set [10]. The data set can be described thus: CEA affinity column, after 6 months storage at 4 C, compared with MFE-23 His purified on the same column.
Data set [11] has the same target. Description: 125I-labelled scFv applied to a CEA coupled Sepharose 4B column, gamma counting; total recovered 1710 cpm.
The target is the same in data set [12]. Description: fluorescence quench.
Data set [13] has the same target. The data set can be described thus: 125I-labelled scFv applied to a 1 ml CEA/Sepharose column (1 mg CEA).
For data set [14] the target is unchanged. Description: fluorescence quench, purified soluble scFv.
Data set [15] shares this target. The data set can be described thus: summary of the affinity comparison with A5B7.
Data set [16] shares this target. The data set can be described thus: radiolabelled scFv applied to a CEA coupled Sepharose 4B column, gamma counting.
The target is the same in data set [17]. Description: radiolabelled control scFv applied to a CEA coupled Sepharose 4B column, gamma counting.
Data set [18] has as its target T1, CEA (Homo sapiens, UniProt P06731).
T1 sequence (P06731 35-702): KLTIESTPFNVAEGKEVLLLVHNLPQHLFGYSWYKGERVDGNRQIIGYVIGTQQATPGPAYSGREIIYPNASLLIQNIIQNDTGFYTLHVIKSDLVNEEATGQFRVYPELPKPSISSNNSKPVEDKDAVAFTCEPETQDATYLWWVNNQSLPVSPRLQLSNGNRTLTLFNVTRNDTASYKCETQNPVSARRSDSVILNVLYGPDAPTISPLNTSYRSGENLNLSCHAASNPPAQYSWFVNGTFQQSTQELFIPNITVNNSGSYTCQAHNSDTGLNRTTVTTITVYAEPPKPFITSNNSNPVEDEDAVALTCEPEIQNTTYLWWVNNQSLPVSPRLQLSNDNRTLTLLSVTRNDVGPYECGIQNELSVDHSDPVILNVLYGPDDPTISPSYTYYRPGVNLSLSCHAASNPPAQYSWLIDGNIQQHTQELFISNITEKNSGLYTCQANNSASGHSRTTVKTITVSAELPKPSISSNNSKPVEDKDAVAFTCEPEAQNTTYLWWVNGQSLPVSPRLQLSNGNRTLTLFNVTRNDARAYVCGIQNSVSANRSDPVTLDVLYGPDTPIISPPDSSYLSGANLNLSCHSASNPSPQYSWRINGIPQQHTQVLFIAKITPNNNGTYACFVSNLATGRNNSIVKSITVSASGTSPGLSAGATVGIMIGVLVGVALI
The data set can be described thus: Dissociation constant (Kd) by fluorescence quench. Particulars: binding to CEA. The text has this: (§1) MFE-23 was subcloned for expression as a soluble scFv linked to a C-terminal myc tag to aid identification during protein purification. […] The specificity against a range of normal human tissues was examined and the only reactivity was weak and with normal large bowel--this is in contrast to many anti-CEA monoclonal antibodies which commonly show cross reaction with a variety of normal tissues^7.

For data set [19], the system named is human colorectal adenocarcinomas. Description: Immunohistochemistry with purified scFv on colorectal adenocarcinomas. Format: binding. The settings on record: second antibody against myc tag, positive/tested tumours.
Description: as §1

The subject of the next data set is normal human tissues. Description: Immunohistochemistry specificity against normal human tissues. It counts as binding.
Description: as §1

In data set [20] the test system is LS174T human colorectal tumour xenografts. Description: Tumour localisation in vivo, Example 1. The settings on record: 125 Iodine labelled, FIG. 2, 29 and 35 hours after injection. Details: species or system nude mice. The text has this: Tumour localisation in vivo was studied using LS174T human colorectal tumour xenografts in nude mice.
Data set [21] is described as follows: Isoelectric focusing (pI of scFvs). It counts as physicochemical. The settings on record: Amphaline PAG plate pH 3.5-9.5. The source says: The isoelectric focusing points of the scFvs were obtained using an Amphaline PAG plate pH 3.5-9.5 (Pharmacia) in accordance with manufacturers instructions.
A short description of data set [22]: Stability of radiolabelled product by gel filtration on S-100 / SDS PAGE. Particulars: 125-I labelled, gel filtration on S-100. It counts as physicochemical. (In general: In gel filtration, larger molecules generally elute earlier.)
Data set [23] addresses T1, CEA. The data set can be described thus: CEA binding of radiolabelled product on CEA/Sepharose column. As to the method:
75 μg of A5-SC and MFE-23 were iodinated with 0.5 mCi of 125-I using the Chloramine T/L-Tyrosine method^20. […] The stability of the radiolabelled products was tested by gel filtration on S-100.
MFE-cys was radiolabelled with ^99m Tc using a ^99m Tc-D-glucarate transfer method^22. 1 ml of ^99m Tc sodium pertechnetate (40.5 mCi) was added to 12.5 mg of monopotassium D-glucarate, 16.8 mg of sodium bicarbonate and 100 μg of stannous chloride (stannous chloride was made up directly before use at a concentration of 0.2 mg/ml). This solution was left for 1 min at room temperature. Then 0.5 ml was mixed with 200 μg MFE-cys in PBS/1 mM EDTA. The mixture was incubated at room temperature for 30 min and then applied to a PD 10 column (Pharmacia; primed with 3% human serum albumin in PBS) to separate the radiolabelled protein from the free pertechnetate. The efficiency of ^99m Tc uptake was tested by thin layer chromatography, using acetonitrile/water (30:20) as running solvent. An aliquot (100 μl) of diluted radiolabelled scFv (1:30 in PBS/Tween 20) was applied to a 1 ml CEA-sepharose column, containing 1 mg of CEA, to test CEA-binding. The column was washed with 8 volumes of PBS/0.05% Tween 20 and bound material was obtained by adding 3M ammoniumthiocyanate. Further, the stability of the labelled scFv was tested by applying the product (diluted 1:30) to Sephacryl S-100. To test the stability of the radiolabelled product in vivo serum taken from mice injected with the labelled scFv 24 h after administration was also applied to Sephacryl S-100. Stability of the ^99m Tc-labelled product was also tested by gel autoradiography as follows: radiolabelled MFE-cys was subjected to SDS-PAGE using a 15% non-reducing acrylamide gel. The protein was then Western blotted onto Immobilon P (Millipore), and visualised by autoradiography using Kodak X-Omatic cassette and Hyperfilm-MP film (Amersham).
Thin layer chromatography (TLC) was performed to measure % ^125 I incorporation. Antigen binding was also assessed by applying a dilution of the radiolabel to a CEA coupled Sepharose 4B (1 mg CEA; 1 ml column volume). The unbound fraction was washed through with 2 column volumes of PBS and the bound fraction with the same volume of 3M ammonium thiocyanate. A control scFv B1.8 which is not specific for CEA and MFE-23 containing a c-myc tag (MFE-23 myc) were tested as a comparison. The unbound and bound fractions were analysed for ^125 I activity using a gamma counter. Stability assessments were carried out by applying a sample of the radiolabel and unlabelled product to a 15% SDS PAGE minigel. The ^125 I-MFE-23 His was visualised by autoradiography and the unlabelled product by Coomassie blue staining. ^125 I-MFE-23 His was also applied to a 100 ml Sephacryl S-100 column (115×1 cm). 1.5 ml fractions were collected and counted for ^125 I activity.

Data set [24] relates to LS174T human colorectal carcinoma xenograft. Description: Xenograft biodistribution study, Example 2. Format: in vivo, nude mice. The settings on record: for percent injected activity per gram of tissue, tumour: 125-I labelled, i.v. tail vein. As to the method: Radiolabelled antibody was administered via the tail vein of nude mice bearing the LS174T human colorectal carcinoma xenograft^21. Each mouse received 4.3 μg/30.12 μCi of A5-SC or 4.3 μg/7.73 μCi of MFE-23. Mice were sacrificed at 24 h and 48 h, and tissues were removed and assessed for activity using a gamma counter. 4 mice were used for each time point.

MFE-cys (cysteine-tagged MFE-23 scFv) came in with a percent of counts recovered in the bound fraction in data set [1] of 55%.
For the molecule “MFE-23 His (MFE-23 scFv containing 6xHis at the C-terminus)”, the results for the antigen binding retained in data set [2] and in data set [10] were greater than 75% and 84%, respectively. The percent of loaded counts in the bound fraction on reapplication in data set [3] is 58%. Besides, the percent of recovered counts in the bound fraction in data set [4] turned out to be 75%. Besides, the mean % bound specific activity in data set [5] was 75%. In addition, the Bound in data set [6] amounted to 0.68 mg; in data set [7], 0.76 mg; in [8] it was 0.4 mg; in [9], 0.83 mg. Moreover, the Specific activity (%) in data set [6] was found to be 75%; in [7], 69%; in data set [8], 81%; in data set [9], 89%. Besides, in data set [11], the counts in the bound fraction turned out to be 1280 cpm.
Broadly, the Kd is the equilibrium constant for the complex coming apart. Low values mean tighter binding, high ones weaker binding. Consider A5B7 monoclonal anti-CEA antibody, for which, in [12], the Kd was found to be 25 nM. This counts as double-digit nanomolar.
On to “A5-SC (scFv derived from monoclonal antibody A5B7)”, for which the percent of counts recovered in [13] amounted to 30.8%.
Consider “MFE-23 soluble scFv linked to a C-terminal myc tag”, for which the Kd in data set [14] came to 2.5 nM. This molecule also registered a fold affinity against A5B7 in [15] of 10 times. This molecule also yielded a percent of counts recovered in data set [13] of 38.7%. Besides, in [16], the counts bound to the column is 23000 cpm and the percent of recovered counts bound to the column came to 56%.
As for control scFv B1.8, in data set [17], the counts bound to the column is 1300 cpm and the percent of recovered counts bound to the column is 10%.

B1: MFE-23: anti-CEA single chain Fv selected from a bacteriophage library, sequence of FIG. 3 (SEQ ID No. 2) (protein)
scFv: ETVIMKYLLPTAAAGLLLLAAQPAMAQVKLQQSGAELVRSGTSVKLSCTASGFNIKDSYMHWLRQGPEQGLEWIGWIDPENGDTEYAPKFQGKATFTTDTSSNTAYLQLSSLTSEDTAVYYCNEGTPTGPYYFDYWGQGTTVTVSSGGGGSGGGGSGGGGSENVLTQSPAIMSASPGEKVTITCSASSSVSYMHWFQQKPGTSPKLWIYSTSNLASGVPARFSGSGSGTSYSLTISRMEAEDAATYYCQQRSSYPLTFGAGTKLELKRAA
B1 gave a Kd in the data set with CEA [18] of 2.5 ± 1.3 nM. Besides, in data set [19], the “typical CEA-reactive pattern in human colorectal adenocarcinomas” value is recorded as 10/10. Also, in the data set with normal human tissues (liver, kidney, large intestine, tonsil, lung, brain, testis, ovary, cervix, breast, blood films, placenta, spleen, thyroid, oesophagus, stomach, pancreas, lymph node, skeletal muscle), the “binding to normal tissues” value was “did not bind”. Also, the “reactivity with normal large bowel” value in the data set on normal human tissues (only reactivity seen in range of normal human tissues) is “weak”. The “tumour imaging (gamma camera)” value in data set [20] is recorded as “only tumours are visible”. Further, the pI in data set [21] is given as 4.5-5.5. Also, in data set [22], the “stability after iodination, S-100 elution profile” value was “one peak”. The “percent of counts recovered on binding to CEA/Sepharose” value in the data set with CEA [23] (125-I radiolabelled products, Example 2) amounted to 38.7%. For the same molecule, in the data set with CEA [23] (125I radiolabelled, Example 5), the “counts in bound fraction of CEA column, % of total counts recovered” value is recorded as 56% and the “counts in unbound fraction of CEA column, % of total counts recovered” value turned out to be 43%. In addition, in data set [24] (24 hours), the “percent injected activity per gram of tissue, tumour” value worked out at 3.2%. In addition, the “percent injected activity per gram of tissue, tumour” value in data set [24] (48 hours) is 1.2%. Besides, in data set [24] (in contrast with A5-SC), the “localisation in liver and spleen” value is listed as “did not show localisation”.
